Target: the molecule itself
Assay: cryo-EM structure

B1: Shaker-IR-I384R (Shaker zH4 K+ channel with fast inactivation removed, Δ6-46, with the I384R mutation) (natural protein, UniProt P08510 1-655, looked up)
chain: MAAVALREQQLQRNSLDGYGSLPKLSSQDEEGGAGHGFGGGPQHFEPIPHDHDFCERVVINVSGLRFETQLRTLNQFPDTLLGDPARRLRYFDPLRNEYFFDRSRPSFDAILYYYQSGGRLRRPVNVPLDVFSEEIKFYELGDQAINKFREDEGFIKEEERPLPDNEKQRKVWLLFEYPESSQAARVVAIISVFVILLSIVIFCLETLPEFKHYKVFNTTTNGTKIEEDEVPDITDPFFLIETLCIIWFTFELTVRFLACPNKLNFCRDVMNVIDIIAIIPYFITLATVVAEEEDTLNLPKAPVSPQDKSSNQAMSLAILRVIRLVRVFRIFKLSRHSKGLQRLGRTLKASMRELGLLIFFLFIGVVLFSSAVYFAEAGSENSFFKSIPDAFWWAVVTMTTVGYGDMTPVGVWGKIVGSLCAIAGVLTIALPVPVIVSNFNYFYHRETDQEEMQSQNFNHVTSCPYLPGTLGQHMKKSSLSESSSDMMDLDDGVESTPGLTETHPGRSAVAPFLGAQQQQQQPVASSLSMSIDKQLQHPLQQLTQTQLYQQQQQQQQQQQNGFKQQQQQTQQQLQQQQSHTINASAAAATSGSGSSGLTMRHNNALAVSIETDV
- stoichiometry N: 4

Reference: paper PMC12630689 (Nature Communications, 2025)
